Measurements from patent publication US20140087995A1 (published 2014).
Numbered stars: 1 amine (or outer) side, 2 acyl side, 3 side chain; on linkers, the order of the positions; unused ones are H or OH. Bridge positions count the residues as written; N and C are the ends. Side chains are listed from the residue outwards. Ends that are not written are not given here. * marks the point of attachment. C20 diacid = O=C(O)CCCCCCCCCCCCCCCCCCC(=O)*; γGlu = O=C(O)[C@H](CCC(=O)[*:2])N[*:1]; AEEA = NCCOCCOCC(=O)O

Biological target: T1, human calcitonin receptor (human, UniProt P30988 25-474)
T1 construct: whole, on cells; Assay used cell membranes of the transfected BHK cells; also called hCTR; hCT
T1 sequence (looked up): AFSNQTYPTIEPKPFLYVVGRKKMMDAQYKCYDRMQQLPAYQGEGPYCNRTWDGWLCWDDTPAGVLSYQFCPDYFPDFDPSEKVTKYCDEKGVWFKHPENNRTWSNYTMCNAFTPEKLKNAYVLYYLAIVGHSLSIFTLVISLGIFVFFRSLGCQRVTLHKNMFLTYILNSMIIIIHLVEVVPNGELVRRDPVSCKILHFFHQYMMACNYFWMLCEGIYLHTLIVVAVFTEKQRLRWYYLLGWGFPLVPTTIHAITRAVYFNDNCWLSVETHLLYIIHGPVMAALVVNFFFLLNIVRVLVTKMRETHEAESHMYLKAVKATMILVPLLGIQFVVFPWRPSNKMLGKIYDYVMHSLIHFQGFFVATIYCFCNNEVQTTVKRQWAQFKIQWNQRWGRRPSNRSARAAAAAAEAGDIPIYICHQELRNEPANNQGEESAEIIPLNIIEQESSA
Assay: SPA radioligand competition (125I-calcitonin), membranes of BHK cells with human calcitonin receptor
Summary of the method: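 BHK hCTR membranes 35 ng/μL + SPA beads 0.05 mg/well; buffer 50 mM Hepes pH 7.4, 1 mM CaCl2, 5 mM MgCl₂, 0.1% OA, 0.02% Tween20. 120 min, 25° C., shaking. Scintillation count; IC50 by one-site binding competition.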

| Binder | IC50 |
| --- | --- |
| K([AEEA-γGlu-C20 diacid])CNTATCATQRLANFLRHSSPNFGAIPSPTPVGSNTY-NH2 (disulfide 2-7; N-terminus assumed; SMILES CC[C@H](C)[C@H](NC(=O)[C@H](C)NC(=O)CNC(=O)[C@H](Cc1ccccc1)NC(=O)[C@H](CC(N)=O)NC(=O)[C@@H]1CCCN1C(=O)[C@H](CO)NC(=O)[C@H](CO)NC(=O)[C@H](Cc1c[nH]cn1)NC(=O)[C@H](CCCNC(=N)N)NC(=O)[C@H](CC(C)C)NC(=O)[C@H](Cc1ccccc1)NC(=O)[C@H](CC(N)=O)NC(=O)[C@H](C)NC(=O)[C@H](CC(C)C)NC(=O)[C@H](CCCNC(=N)N)NC(=O)[C@H](CCC(N)=O)NC(=O)[C@@H](NC(=O)[C@H](C)NC(=O)[C@@H]1CSSC[C@H](NC(=O)[C@@H](N)CCCCNC(=O)COCCOCCNC(=O)CC[C@H](NC(=O)CCCCCCCCCCCCCCCCCCC(=O)O)C(=O)O)C(=O)N[C@@H](CC(N)=O)C(=O)N[C@@H]([C@@H](C)O)C(=O)N[C@@H](C)C(=O)N[C@@H]([C@@H](C)O)C(=O)N1)[C@@H](C)O)C(=O)N1CCC[C@H]1C(=O)N[C@@H](CO)C(=O)N1CCC[C@H]1C(=O)N[C@H](C(=O)N1CCC[C@H]1C(=O)N[C@H](C(=O)NCC(=O)N[C@@H](CO)C(=O)N[C@@H](CC(N)=O)C(=O)N[C@H](C(=O)N[C@@H](Cc1ccc(O)cc1)C(N)=O)[C@@H](C)O)C(C)C)[C@@H](C)O, Synthetic analogue; also called compound 54) | 4.38 nM |
| K([AEEA-γGlu-C20 diacid])CNTATCATQRLANFLRHSSPNFGAIPSPTNVGPNTY-NH2 (disulfide 2-7; N-terminus assumed; SMILES CC[C@H](C)[C@H](NC(=O)[C@H](C)NC(=O)CNC(=O)[C@H](Cc1ccccc1)NC(=O)[C@H](CC(N)=O)NC(=O)[C@@H]1CCCN1C(=O)[C@H](CO)NC(=O)[C@H](CO)NC(=O)[C@H](Cc1c[nH]cn1)NC(=O)[C@H](CCCNC(=N)N)NC(=O)[C@H](CC(C)C)NC(=O)[C@H](Cc1ccccc1)NC(=O)[C@H](CC(N)=O)NC(=O)[C@H](C)NC(=O)[C@H](CC(C)C)NC(=O)[C@H](CCCNC(=N)N)NC(=O)[C@H](CCC(N)=O)NC(=O)[C@@H](NC(=O)[C@H](C)NC(=O)[C@@H]1CSSC[C@H](NC(=O)[C@@H](N)CCCCNC(=O)COCCOCCNC(=O)CC[C@H](NC(=O)CCCCCCCCCCCCCCCCCCC(=O)O)C(=O)O)C(=O)N[C@@H](CC(N)=O)C(=O)N[C@@H]([C@@H](C)O)C(=O)N[C@@H](C)C(=O)N[C@@H]([C@@H](C)O)C(=O)N1)[C@@H](C)O)C(=O)N1CCC[C@H]1C(=O)N[C@@H](CO)C(=O)N1CCC[C@H]1C(=O)N[C@H](C(=O)N[C@@H](CC(N)=O)C(=O)N[C@H](C(=O)NCC(=O)N1CCC[C@H]1C(=O)N[C@@H](CC(N)=O)C(=O)N[C@H](C(=O)N[C@@H](Cc1ccc(O)cc1)C(N)=O)[C@@H](C)O)C(C)C)[C@@H](C)O, Synthetic analogue; also called compound 56) | 2.09 nM |
| K([AEEA-γGlu-C20 diacid])CNTATCATQRLANFLRHSSPNFGAIPPSTNVGPNTY-NH2 (disulfide 2-7; N-terminus assumed; SMILES CC[C@H](C)[C@H](NC(=O)[C@H](C)NC(=O)CNC(=O)[C@H](Cc1ccccc1)NC(=O)[C@H](CC(N)=O)NC(=O)[C@@H]1CCCN1C(=O)[C@H](CO)NC(=O)[C@H](CO)NC(=O)[C@H](Cc1c[nH]cn1)NC(=O)[C@H](CCCNC(=N)N)NC(=O)[C@H](CC(C)C)NC(=O)[C@H](Cc1ccccc1)NC(=O)[C@H](CC(N)=O)NC(=O)[C@H](C)NC(=O)[C@H](CC(C)C)NC(=O)[C@H](CCCNC(=N)N)NC(=O)[C@H](CCC(N)=O)NC(=O)[C@@H](NC(=O)[C@H](C)NC(=O)[C@@H]1CSSC[C@H](NC(=O)[C@@H](N)CCCCNC(=O)COCCOCCNC(=O)CC[C@H](NC(=O)CCCCCCCCCCCCCCCCCCC(=O)O)C(=O)O)C(=O)N[C@@H](CC(N)=O)C(=O)N[C@@H]([C@@H](C)O)C(=O)N[C@@H](C)C(=O)N[C@@H]([C@@H](C)O)C(=O)N1)[C@@H](C)O)C(=O)N1CCC[C@H]1C(=O)N1CCC[C@H]1C(=O)N[C@@H](CO)C(=O)N[C@H](C(=O)N[C@@H](CC(N)=O)C(=O)N[C@H](C(=O)NCC(=O)N1CCC[C@H]1C(=O)N[C@@H](CC(N)=O)C(=O)N[C@H](C(=O)N[C@@H](Cc1ccc(O)cc1)C(N)=O)[C@@H](C)O)C(C)C)[C@@H](C)O, Synthetic analogue; also called compound 55) | 2.17 nM |
